From US20260176659A1, “IMPROVED METHOD FOR THE PRODUCTION OF NATURAL VANILLIN” (BASE SE, priority 2022, published 2026)

Tests used:
[1] = Spectrophotometric enzymatic assay: cleaving activity, production of vanillin from coniferyl alcohol at 349 nm; type: biochemical; conditions: freeze-dried cell free extract incl. buffer salts; vanillin from coniferyl alcohol
Description: Stock solution 200× of coniferyl alcohol (90 mg) was prepared in ethanol (5 mL) and stored at −20° C. From this, a new stock solution 20× of coniferyl alcohol (10 mM) was freshly prepared by 1:10 dilution in Glycine-NaOH (50 mM, pH 9.0). A cuvette containing 0.750 mL Glycine-NaOH (50 mM, pH 9.0) and 0.05 mL of the substrate 20× stock was pre-warmed at 25° C. for 1.5 mins. Then, the reaction was initiated by the addition of 0.2 mL of the enzyme sample. The cleaving […] activity was measured spectrophotometrically following the production of vanillin at 349 nm (ε349=26.7 mM^−1cm^−1 experimentally determined). One unit of activity (U) is defined as the amount of enzyme required to produce 1 μmol of vanillin per min. Agilent Cary 60 UV-Vis Spectrophotometer was used for all the measurements.
Searching for alternative novel alkene cleavage oxygenases (COs) catalysing the formation of vanillin from coniferyl alcohol was performed. A set of 27 sequences and 10 COs from different branches of the phylogenetic tree were selected, named CO-02-11. Two additional enzymes were included, which are located in different clusters of the phylogenetic tree: Lignostillbene dioxygenase from Pseudomonas brassicaceraum (PbLSD, PDB: 5V2D) and aromatic dioxygenase (Ado, CO-01) from Thermothelomyces thermophilus (GenBank ID: XP_003665585). The proteins were recombinantly expressed in E. coli BL21(DE3), following the same protocol developed for IECO. […] Putative COs were screened by spectrophotometric assay, monitoring the formation of 3a upon 2a cleavage. From a set of twelve COs, four positive hits, namely CO-01, CO-03, CO-06 and CO-07 were found. Positive variants were tested in the one pot cascade and compared them with IECO In agreement with the spectrophotometric screening, all four COs converted eugenol 1a to vanillin 3a (Table 8). The first step of the cascade is efficiently performed by EUGO, and the substrate is completely consumed. […] Overall, 70±3% conversion of 1a to vanillin 3a was achieved.

[2] = Biotransformation of coniferyl alcohol to vanillin catalysed by IECO (5 mM); type: biochemical; conditions: 5 mM 2a; for Consumption of 2a / Conversion of 2a to 3a (%) / Conversion of 2a to 5a (%) / Reaction composition at 24 hours (%) 2a / Reaction composition at 24 hours (%) 3a / Reaction composition at 24 hours (%) 5a: pH 9.0
Description: 180 mg of coniferyl alcohol were weighted and dissolved in 10 mL ethanol and stored at −20° C. (stock 100 mM). The reaction mixtures (0.5 mL) were set up in 1.5 mL glass vials as follows: […] (50 mM, pH 9.0) together with sodium ascorbate (1 mM), FeSO4 (1 mM) and bovine liver catalase (Sigma C40, 0-10 mg/mL). The reaction was initiated by the addition of coniferyl alcohol stock (0.025 mL, final concentration 5 mM), then it was incubated for 24 hours at 30° C. and 120 rpm (rotary shaker). Note that the reaction contained 5% v/v ethanol deriving from the substrate stock. To improve the oxygenation, the vials were placed horizontally. At certain time points, reaction samples were taken and quenched with methanol (2 vol. equivalents). The mixture was centrifuged for 5-10 mins at 20238 g. Then supernatant was finally transferred in a HPLC vial for analysis.

[3] = IECO CFE Fresh 1 mg/mL, 24 h, non-optimised
[4] = IECO CFE Fresh 2 mg/mL, 24 h, non-optimised
[5] = IECO CFE Stored at −20° 2 mg/mL, 24 h, non-optimised
[6] = IECO CFE Stored at −20° C. 3 mg/mL, 24 h, non-optimised
[7] = IECO fresh CFE 1 mg/mL, catalase 0 mg/mL
[8] = IECO fresh CFE 1 mg/mL, catalase 2 mg/mL
[9] = IECO fresh CFE 1 mg/mL, catalase 10 mg/mL
[10] = IECO fresh CFE 2 mg/mL, catalase 0 mg/mL
[11] = IECO fresh CFE 2 mg/mL, catalase 2 mg/mL
[12] = IECO fresh CFE 2 mg/mL, catalase 10 mg/mL
[13] = IECO fresh CFE 4 mg/mL, catalase 0 mg/mL
[14] = IECO fresh CFE 4 mg/mL, catalase 2 mg/mL
[15] = IECO fresh CFE 4 mg/mL, catalase 10 mg/mL

B1: IECO: isoeugenol cleavage oxygenase from Pseudomonas nitroreducens (GenBank: ACP17973), SEQ ID NO: 24 (protein, listed as Pseudomonas nitroreducens)
chain: MARLNRNDPQLVGTLLPTRIEADLFDLEVDGEIPKSINGTFYRNTPEPQVTPQKFHTFIDGDGMASAFHFEDGHVDFISRWVKTARFTAERLARKSLFGMYRNPYTDDTSVKGLDRTVANTSIISHHGKVLAVKEDGLPYELDPRTLETRGRFDYDGQVTSQTHTAHPKYDPETGDLLFFGSAAKGEATPDMAYYIVDKHGKVTHETWFEQPYGAFMHDFAITRNWSIFPIMPATNSLSRLKAKQPIYMWEPELGSYIGVLPRRGQGSQIRWLKAPALWVFHVVNAWEVGTKIYIDLMESEILPFPFPNSQNQPFAPEKAVPRLTRWEIDLDSSSDEIKRTRLHDFFAEMPIMDFRFALQCNRYGFMGVDDPRKPLAHQQAEKIFAYNSLGIWDNHRGDYDLWYSGEASAAQEPAFVPRSPTAAEGDGYLLTVVGRLDENRSDLVILDTQDIQSGPVATIKLPFRLRAALHGCWVPRP
[1]
  Specific Activity (mU/mg of FD-CFE): 2.8 mU/mg
[2]; IECO 4 mg CFE/mL in the presence of catalase, 24 h
  vanillin afforded: 3.6 ± 0.6 mM
[2]; [3]
  Consumption of 2a: 24%
  Conversion of 2a to 3a (%): 9%
[2]; [4]
  Consumption of 2a: 45%
  Conversion of 2a to 3a (%): 17%
[2]; [5]
  Consumption of 2a: 12%
  Conversion of 2a to 3a (%): 4%
  Conversion of 2a to 5a (%): 1%
[2]; [6]
  Consumption of 2a: 18%
  Conversion of 2a to 3a (%): 5%
  Conversion of 2a to 5a (%): 13%
[2]; [7]
  Reaction composition at 24 hours (%) 2a: 46 ± 3%
  Reaction composition at 24 hours (%) 3a: 51 ± 3%
  Reaction composition at 24 hours (%) 5a: 3 ± 1%
[2]; IECO fresh CFE 1 mg/mL, catalase 0 mg/mL, 24 h
  Conversion of 2a to 3a (%): 38 ± 4%
[2]; [8]
  Reaction composition at 24 hours (%) 2a: 41 ± 6%
  Reaction composition at 24 hours (%) 3a: 58 ± 6%
  Reaction composition at 24 hours (%) 5a: 1 ± 0.1%
[2]; IECO fresh CFE 1 mg/mL, catalase 2 mg/mL, 24 h
  Conversion of 2a to 3a (%): 44 ± 5%
[2]; [9]
  Reaction composition at 24 hours (%) 2a: 41 ± 3%
  Reaction composition at 24 hours (%) 3a: 58 ± 1%
  Reaction composition at 24 hours (%) 5a: 1 ± 0.1%
[2]; IECO fresh CFE 1 mg/mL, catalase 10 mg/mL, 24 h
  Conversion of 2a to 3a (%): 45 ± 3%
[2]; [10]
  Reaction composition at 24 hours (%) 2a: 25 ± 4%
  Reaction composition at 24 hours (%) 3a: 71 ± 4%
  Reaction composition at 24 hours (%) 5a: 5 ± 1%
[2]; IECO fresh CFE 2 mg/mL, catalase 0 mg/mL, 24 h
  Conversion of 2a to 3a (%): 53 ± 3%
[2]; [11]
  Reaction composition at 24 hours (%) 2a: 27 ± 3%
  Reaction composition at 24 hours (%) 3a: 72 ± 3%
  Reaction composition at 24 hours (%) 5a: 1 ± 0.3%
[2]; IECO fresh CFE 2 mg/mL, catalase 2 mg/mL, 24 h
  Conversion of 2a to 3a (%): 58 ± 3%
[2]; [12]
  Reaction composition at 24 hours (%) 2a: 22 ± 4%
  Reaction composition at 24 hours (%) 3a: 77 ± 4%
  Reaction composition at 24 hours (%) 5a: 1 ± 0.1%
[2]; IECO fresh CFE 2 mg/mL, catalase 10 mg/mL, 24 h
  Conversion of 2a to 3a (%): 59±3%
[2]; [13]
  Reaction composition at 24 hours (%) 2a: 9.1 ± 3%
  Reaction composition at 24 hours (%) 3a: 82 ± 5%
  Reaction composition at 24 hours (%) 5a: 9 ± 4%
[2]; IECO fresh CFE 4 mg/mL, catalase 0 mg/mL, 24 h
  Conversion of 2a to 3a (%): 56 ± 10%
[2]; [14]
  Reaction composition at 24 hours (%) 2a: 11 ± 3%
  Reaction composition at 24 hours (%) 3a: 84 ± 5%
  Reaction composition at 24 hours (%) 5a: 5 ± 4%
[2]; IECO fresh CFE 4 mg/mL, catalase 2 mg/mL, 24 h
  Conversion of 2a to 3a (%): 62 ± 10%
[2]; [15]
  Reaction composition at 24 hours (%) 2a: 13 ± 1%
  Reaction composition at 24 hours (%) 3a: 86 ± 13%
  Reaction composition at 24 hours (%) 5a: 1 ± 0.1%
